Among the data in patent US5686583, “Specific antibodies against activated platelets, the preparation thereof and the use thereof in diagnosis and therapy” (Behringwerke Aktiengesellschaft, dated 1997) are binding result and fold stronger reaction with thrombin-activated than with non-activated platelets values, retold here.

Test [1] has as its target human thrombospondin (TSP) (human, UniProt P07996). Put plainly: Western blot. (Immunoblotting shows a protein as a band on a membrane.)
The target of test [2] is v. Willebrand factor (Homo sapiens (Human), UniProt P04275). Put plainly: Western blot.
Test [3] deals with gP 140 (Homo sapiens (Human), UniProt P16109). Put plainly: Western blot.
The target in test [4] is platelet antigen recognized by MAb BW 2128 (human). Put plainly: reaction with platelets; method not further stated.
The target of test [5] is fibrinogen (Homo sapiens (Human), UniProt P02671-2). Put plainly: immunoprecipitation and Western blotting.
Test [6] has as its target fibronectin (Homo sapiens (Human), UniProt P02751-8). Put plainly: immunoprecipitation and Western blotting.

B1: MAb BW 2128 (antibody, V domains shown)
VH: LQQSGAELVKPGASVTLSCKASGYTFTSYWMHWVKQRPGQGLEWIGEINPSNGRTNYNEKFKSKATLTVDKSSSTAYMHLSSLTSDDSAVYYCARGAGAGGYWGQGTTVTVSS
VL: QLTQSPAIMSASPGEKVTMTCSASSSVTYMHWCQQKSGTSPKRWIYDTSKLASGVPARFSGSGSGTSYSLTISSMEAEDAATYYCQQWNSNPLTFGAGTKLEI
Take B1: the binding result in test [1], in test [2], in test [3], in test [5] and in test [6] was “no binding” each time. The fold stronger reaction with thrombin-activated than with non-activated platelets in test [4] was greater than 10 ×.
